Experimental data as given in the supplement of paper PMC10567573.

B1: KCNA3 (parent)
chain: GERVVINISGLRFETQLKTLCQFP

Variants of: B1
Assay: protein stability index of a GFP-peptide fusion (GPS, HEK-293T) (PSI 1-6); higher = more stable
Details: c terminus: a fixed tail appended
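Further: lentivirally expressed fusions sorted by FACS into six bins by GFP to DsRed ratio, PSI derived from sequencing read proportions per bin multiplied by bin number.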

| Variant | protein stability index |
| --- | --- |
| GERVVIPISGLRFETQLKTLCQFP [N7P] | 1.53 |
| GERVVISISGLRFETQLKTLCQFP [N7S] | 4.73 |
| GERVVIYISGLRFETQLKTLCQFP [N7Y] | 1.8 |
| GERVVIDISGLRFETQLKTLCQFP [N7D] | 1.83 |
| GERVVIGISGLRFETQLKTLCQFP [N7G] | 2.14 |
| GERVVICISGLRFETQLKTLCQFP [N7C] | 2.1 |
| GERVVIHISGLRFETQLKTLCQFP [N7H] | 4.19 |
| GERVVIQISGLRFETQLKTLCQFP [N7Q] | 2.66 |
| GERVVIEISGLRFETQLKTLCQFP [N7E] | 2.1 |
| MERVVINISGLRFETQLKTLCQFP [G1M] | 3.17 |
| KERVVINISGLRFETQLKTLCQFP [G1K] | 2.52 |
| HERVVINISGLRFETQLKTLCQFP [G1H] | 2.1 |
| RERVVINISGLRFETQLKTLCQFP [G1R] | 3.52 |
| YERVVINISGLRFETQLKTLCQFP [G1Y] | 4.07 |
| LERVVINISGLRFETQLKTLCQFP [G1L] | 2.66 |
| SERVVINISGLRFETQLKTLCQFP [G1S] | 3 |
| IERVVINISGLRFETQLKTLCQFP [G1I] | 3.44 |
| QERVVINISGLRFETQLKTLCQFP [G1Q] | 1.95 |
| WERVVINISGLRFETQLKTLCQFP [G1W] | 4.64 |
| TERVVINISGLRFETQLKTLCQFP [G1T] | 2.96 |
| DERVVINISGLRFETQLKTLCQFP [G1D] | 1.82 |
| CERVVINISGLRFETQLKTLCQFP [G1C] | 2.8 |
| NERVVINISGLRFETQLKTLCQFP [G1N] | 2.16 |
| GERVVINISGLKFETQLKTLCQFP [R12K] | 2.5 |

| Variant | protein stability index |
| --- | --- |
| GERVVINISGLYFETQLKTLCQFP [R12Y] | 2.61 |
| GERVVINISGLDFETQLKTLCQFP [R12D] | 1.84 |
| GERVVINISGLSFETQLKTLCQFP [R12S] | 1.48 |
| GERVVINISGLNFETQLKTLCQFP [R12N] | 2.85 |
| GERVVINISGLWFETQLKTLCQFP [R12W] | 2.37 |
| GERVVINISGLCFETQLKTLCQFP [R12C] | 2.46 |
| GERVVINISGLQFETQLKTLCQFP [R12Q] | 2.21 |
| GERVVINISGLPFETQLKTLCQFP [R12P] | 1.45 |
| GERVVINISGLLFETQLKTLCQFP [R12L] | 4.18 |
| GERVNINISGLRFETQLKTLCQFP [V5N] | 1.76 |
| GERVEINISGLRFETQLKTLCQFP [V5E] | 1.47 |
| GERVRINISGLRFETQLKTLCQFP [V5R] | 2.18 |
| GERVSINISGLRFETQLKTLCQFP [V5S] | 1.67 |
| GERVDINISGLRFETQLKTLCQFP [V5D] | 1.55 |
| GERVKINISGLRFETQLKTLCQFP [V5K] | 2.49 |
| GERVIINISGLRFETQLKTLCQFP [V5I] | 2.99 |
| GERVAINISGLRFETQLKTLCQFP [V5A] | 1.53 |
| GERVGINISGLRFETQLKTLCQFP [V5G] | 2.04 |
| GERVPINISGLRFETQLKTLCQFP [V5P] | 2.17 |
| GERVLINISGLRFETQLKTLCQFP [V5L] | 2.29 |
| GERVTINISGLRFETQLKTLCQFP [V5T] | 2.42 |
| GERVQINISGLRFETQLKTLCQFP [V5Q] | 1.94 |
| GERVHINISGLRFETQLKTLCQFP [V5H] | 1.93 |
| GERVYINISGLRFETQLKTLCQFP [V5Y] | 2.39 |

| Variant | protein stability index |
| --- | --- |
| GERVFINISGLRFETQLKTLCQFP [V5F] | 2.05 |
| GERVCINISGLRFETQLKTLCQFP [V5C] | 2.49 |
| GERVVINIKGLRFETQLKTLCQFP [S9K] | 2.4 |
| GERVVINIGGLRFETQLKTLCQFP [S9G] | 1.04 |
| GERVVINIAGLRFETQLKTLCQFP [S9A] | 1.29 |
| GERVVINILGLRFETQLKTLCQFP [S9L] | 2.27 |
| GERVVINIDGLRFETQLKTLCQFP [S9D] | 1.51 |
| GERVVINIPGLRFETQLKTLCQFP [S9P] | 1 |
| GERVVINIFGLRFETQLKTLCQFP [S9F] | 2.47 |
| GERVVINIEGLRFETQLKTLCQFP [S9E] | 3.59 |
| GERVVINIVGLRFETQLKTLCQFP [S9V] | 1.83 |
| GERVVINIQGLRFETQLKTLCQFP [S9Q] | 3.24 |
| GERQVINISGLRFETQLKTLCQFP [V4Q] | 2.34 |
| GERYVINISGLRFETQLKTLCQFP [V4Y] | 2.16 |
| GERPVINISGLRFETQLKTLCQFP [V4P] | 2.13 |
| GERHVINISGLRFETQLKTLCQFP [V4H] | 2.16 |
| GERDVINISGLRFETQLKTLCQFP [V4D] | 1.88 |
| GERTVINISGLRFETQLKTLCQFP [V4T] | 2.27 |
| GERFVINISGLRFETQLKTLCQFP [V4F] | 3.43 |
| GEREVINISGLRFETQLKTLCQFP [V4E] | 1.92 |
| GERSVINISGLRFETQLKTLCQFP [V4S] | 2.59 |
| GERWVINISGLRFETQLKTLCQFP [V4W] | 2.82 |
| GERNVINISGLRFETQLKTLCQFP [V4N] | 1.64 |
| GERAVINISGLRFETQLKTLCQFP [V4A] | 1.75 |

| Variant | protein stability index |
| --- | --- |
| GERGVINISGLRFETQLKTLCQFP [V4G] | 1.66 |
| GERRVINISGLRFETQLKTLCQFP [V4R] | 2.28 |
| GERMVINISGLRFETQLKTLCQFP [V4M] | 2.79 |
| GERKVINISGLRFETQLKTLCQFP [V4K] | 2.23 |
| GERCVINISGLRFETQLKTLCQFP [V4C] | 3.21 |
| GERVVINISGWRFETQLKTLCQFP [L11W] | 2.49 |
| GERVVINISGSRFETQLKTLCQFP [L11S] | 1.75 |
| GERVVINISGHRFETQLKTLCQFP [L11H] | 1.38 |
| GERVVINISGERFETQLKTLCQFP [L11E] | 2.01 |
| GERVVINISGIRFETQLKTLCQFP [L11I] | 2.68 |
| GERVVINISGQRFETQLKTLCQFP [L11Q] | 1.45 |
| GERVVINISGVRFETQLKTLCQFP [L11V] | 3.59 |
| GERVVINISGNRFETQLKTLCQFP [L11N] | 2.94 |
| GERVVINISGGRFETQLKTLCQFP [L11G] | 2.45 |
| GERVVINISGPRFETQLKTLCQFP [L11P] | 1.54 |
| GERVVINISGFRFETQLKTLCQFP [L11F] | 1.61 |
| GERVVINISGARFETQLKTLCQFP [L11A] | 1.34 |
| GERVVINISGTRFETQLKTLCQFP [L11T] | 1.58 |
| GERVVINISGDRFETQLKTLCQFP [L11D] | 1.81 |
| GEGVVINISGLRFETQLKTLCQFP [R3G] | 1.85 |
| GEAVVINISGLRFETQLKTLCQFP [R3A] | 3.5 |
| GENVVINISGLRFETQLKTLCQFP [R3N] | 1.09 |
